Assay results: the DeepSol protein solubility set

Experiment: soluble on expression in E. coli; label from the status in PepcDB or PDB records

Q: Which “soluble on expression in E. coli” value does the source give for “MGSDKIHHHHHHLKVIAIGDNVVDLYPADKQMYLGGHAANTAVFAAELGLQAAYIGTFGNDARGDFARRMLVERGVDVQHSLQYVGRNAFTTITGKDGARRKVVGEPPQELRLDPEDIAYINSFDLVYLNSESHADAFLQAITARKVYDFSILDDDKLFKKIAPQIDLAYLSGKARSDDDVEALMRRVAAAGCDRIVCSRGLRGSAALVDGMMSWQQALGVKAVDSLGAGDAYITSFAATLYSSSKPTLDAKVSESLSHAAKFASAQVLLPGSFGHGAPLIS” here?
A: not soluble

Q: With “AIARNDLFNREKSRQLSLTPRTEKIEVKHVGKTDPGTVFVMNKNISTPYSCAMHLSEWYCSKSILALVDGQPWDMYKPLTKSCEIKFLTFKDPDPREVNKAYWRSCAMMLGCVIERAFKDDYVVSLLRAPEVPVIAGAFCYDVTLDKRLDEWMPTKENLRSFTKDAHALIYRDLPFETLDVDARVALEIFQHNKYKVDFIEEKASQNPERIVKLHRIGDFIDVSEGPLIPRTSVCFQYEVSAVHNLNPSQPNLIRRFQGLSLPTHLRAQFTIWDKLVGRSRKMVTEDEVRQTENTESTQ” as the sequence, how does the “soluble on expression in E. coli” value read?
A: not soluble

Q: For “MSLTIIKQVELHEFDFKAKNLGNLTGAESVGAFGYLKGSFSKIKKFAVVIITDDGVRGEYVTHWCASDATYAQSSILAPKLLGRNAEEREGIYDDFKRELRQFDHMGHGPIDIALWDWAGKKLDCSVNFLLGGFKKKLPAYASTYHGDRNGGLDSKEAFSDFAEYCYDLGYKAFKIHGWNDGNAKEEAENVLHVAKKVGHKMTLMLDPACELRTFADALYVGKACDEADYFWLEDPYRDSGVSAFAHKKLRNMIKTPILQTEHIRGLEPKADFLIAGGTDFLRMDPEYDMGITGGMKIAHLAESFGVDVEIHACGPAHRHMMSAIRNTNFYEVALLGPDCPNAIPPVYLCGYSDMIDCIDKNGFVEVPNGVGLGVKYDWEFISKNTTNKKIFSLEGHHHHHH”, which “soluble on expression in E. coli” value is on record?
A: soluble

Q: Which “soluble on expression in E. coli” value does the source give for “MATPYVPVPMPIGNSASSFTNNRNQRSSSFGSVSTSSTSSKGQLEDSAVGSLKQTNVQDQMDSASSMCGSPLIRTKFTGTDSSIEYSARPREAEEQHPEAVNWEDRPSTPTILGYEVMEERAKFTVYKILVKKSPEESWVVFRRYTDFSRLNDKLKEMFPGFRLALPPKRWFKDNYNAEFLEDRQLGLQAFLQNLVAHKDIANCLAVREFLCLDDPPGPFDSLEESRAFCETLEETNYHLQRELLEKQKEVESLKKLLGEKQLHIDALETRIRTLSLEPGASLYVSRAEGGQILRVEPSVLQVNRDVLDEESRADHKPHFNSREAGSVIAGIEVAQLAYNAEDD” here?
A: soluble

Q: Which “soluble on expression in E. coli” value does the source give for “MMMFLPPEVVREIHEERVKKALENLKAIELEKELLEKVVKEEKKVSSRRRRREKETVEV” here?
A: not soluble

Q: With “MLIALTGTPGTGKSSVAERLRERGYKVATVVELAEKHGCIIDEEDGEIVIDVESLAARIDFEGIVEGHLSHLLKPDVAIVLRCNPAVLRERLKGRNWSEEKLLENLEAEMLDVILVEALEHASEVYEIDTTEMSLEEVIEAVEAIIRGDREARKRYKPGGIDWLSELEDRIEEFMRKVLEHHHHHH” as the sequence, how does the “soluble on expression in E. coli” value read?
A: soluble

Q: For “MDNNLEIKDLEKIAKKVRYNIVKMVGLAKSGHPGGSLSATDIIVALYFKLMNYSPDNPYKKDRDRFVLSKGHAAPALYAVLSELGIIEEEELWKLRRLEGKLQGHPSMDTPGVEICTGSLGQGFSAAVGMALGCRLDKLNNYVYVLLGDGECQEGIVWEAAMAAAHYKLDNLIAFIDRNKLQIDGCTEDVMSLGDIKAKFEAFGWDVFEIDGHNFEEIINTVEKAKSMKNGKPKMIIAYTVKGKGVSFMENNVAFHGKAPNEEQLKQALEELSE”, which “soluble on expression in E. coli” value is on record?
A: soluble

Q: With “MEVCSTVTTKKLSSLAKLILFTIQKVSDASRHKLLTTLDPHLLAKRGKILRKSLNEAVSTSHSRITCRPSDHQDVRSSFISPVPLQLEYEFSCSSTPPRRSYATTVSKGRRSNGSHNRPLINKRQRQAYIRYNTLPKVRDSIWDRHVAAAVFPDVASSTGTMESCHVDRAAEEFIQSFYRQLRLQKWMMAQEV” as the sequence, how does the “soluble on expression in E. coli” value read?
A: not soluble

Q: With “MSLARTEKIYIYGASGHGLVCEDVAKNMGYKECIFLDDFKGMKFESTLPKYDFFIAIGNNEIRKKIYQKISENGFKIVNLIHKSALISPSAIVEENAGILIMPYVVINAKAKIEKGVILNTSSVIEHECVIGEFSHVSVGAKCAGNVKIGKNCFLGINSCVLPNLSLADDSILGGGATLVKNQDEKGVFVGVPAKRMEGGSHHHHHH” as the sequence, how does the “soluble on expression in E. coli” value read?
A: soluble

Q: With “MARSRRDKNVSLTKVKKKTKDTKNNLVNEVRASVDQYKNLFIFTIANMRSTRFIAIRQKYKENSRFFFGKNNVISIALGKQKSDEYANQLHKASAILKGQCGLMFTNMSKKEVEAEFSEASEEDYARVGDVATETVVLPEGPISQFAFSMEPQLRKLGLPTKLDKGVITLYQQFEVCKEGEPLTVEQAKILKHFEVKMSQFRLIFKAHWNKKDGFKELDA” as the sequence, how does the “soluble on expression in E. coli” value read?
A: not soluble

Q: For “MGSDKIHHHHHHMSQHVLIAGGGIVGCLTAMELVSRGCRVTIVERNNIASQTSGESSWAGTGIMFPLLPWMYSDHVNTLTHYGASLYPDICARLFKETGIDPQMLDSGFLLLPPFDREAALTWCARYQVKAEDTKAAGFGVQSPNGQDALWLPDVKQVRPPCLMHALRTWLENHHVRLLERTELMPLSPGTSRLTAWATTSGELLEADRFIVTSGAWSFELLKEVASKLQIKPMRGQILLYKPEHNPRAVIFREDFYLVPRRDGYLLAGSTLEDVGFDPSVTDTVRDAIRAKAAALMPELADLPILKHWSGLRPGTPENLPIISPHPGIENLYLNTGHFRYGLTMGPASASLAAALVCGETPWTDPTPFSLPQ”, which “soluble on expression in E. coli” value is on record?
A: not soluble

Q: Which “soluble on expression in E. coli” value does the source give for “VHADLAATTSREDFRLLAAEHRVVPVTRKVLADSETPLSAYRKLAANRPGTFLLESAENGRSWSRWSFIGAGAPTALTVREGQAVWLGAVPKDAPTGGDPLRALQVTLELLATADRQSEPGLPPLSGGMVGFFAYDMVRRLERLPERAVDDLCLPDMLLLLATDVAAVDHHEGTITLIANAVNWNGTDERVDWAYDDAVARLDVMTAALGQPLPSTVATFSRPEPRHRAQRTVEEYGAIVEYLVDQIAAGEAFQVVPSQRFEMDTDVDPIDVYRILRVTNPSPYMYLLQVPNSDGAVDFSIVGSSPEALVTVHEGWATTHPIAGTRWRGRTDDEDVLLEKELLADDKERAEHLMLVDLGRNDLGRVCTPGTVRVEDYSHIERYSHVMHLVSTVTGKLGEGRTALDAVTACFPAGTLSGAPKVRAMELIEEVEKTRRGLYGGVVGYLDFAGNADFAIAIRTALMRNGTAYVQAGGGVVADSNGSYEYNEARNKARAVLNAIAAAETLAAPGANRSGC” here?
A: soluble

Q: For “MGHHHHHHSHMSIPSSQYGFVFNKQSGLKLRNDLPVHKPKAGQLLLKVDAVGLCHSDLHVIYEGLDCGDNYVMGHEIAGTVAAVGDDVINYKVGDRVACVGPNGCGGCKYCRGAIDNVCKNAFGDWFGLGYDGGYQQYLLVTRPRNLSRIPDNVSADVAAASTDAVLTPYHAIKMAQVSPTSNILLIGAGGLGGNAIQVAKAFGAKVTVLDKKKEARDQAKKLGADAVYETLPESISPGSFSACFDFVSVQATFDVCQKYVEPKGVIMPVGLGAPNLSFNLGDLALREIRILGSFWGTTNDLDDVLKLVSEGKVKPVVRSAKLKELPEYIEKLRNNAYEGRVVFNP”, which “soluble on expression in E. coli” value is on record?
A: soluble

Q: For “GALKRAEELKTQANDYFKAKDYENAIKFYSQAIELNPSNAIYYGNRSLAYLRTECYGYALGDATRAIELDKKYIKGYYRRAASNMALGKFRAALRDYETVVKVKPHDKDAKMKYQECNKIVKQKAFERAIAGDEHKRSVVDSLDIESMTIEDEYSGPKLEDGKVTISFMKELMQWYKDQKKLHRKCAYQILVQVKEVLSKLSTLVETTLKETEKITVCGDTHGQFYDLLNIFELNGLPSETNPYIFNGDFVDRGSFSVEVILTLFGFKLLYPDHFHLLRGNHETDNMNQIYGFEGEVKAKYTAQMYELFSEVFEWLPLAQCINGKVLIMHGGLFSEDGVTLDDIRKIERNRQPPDSGPMCDLLWSDPQPQNGRSISKRGVSCQFGPDVTKAFLEENNLDYIIRSHEVKAEGYEVAHGGRCVTVFSAPNYCDQMGNKASYIHLQGSDLRPQFHQFTAVPHPNVKPMAYANTLLQLGMM”, which “soluble on expression in E. coli” value is on record?
A: soluble

Q: Which “soluble on expression in E. coli” value does the source give for “MSNPQPEKVRVVVGDDHPLFREGVVRALSLSGSVNVVGEADDGAAALELIKAHLPDVALLDYRMPGMDGAQVAAAVRSYELPTRVLLISAHDEPAIVYQALQQGAAGFLLKDSTRTEIVKAVLDCAKGRDVVAPSLVGGLAGEIRQRAAPVAPVLSAREREVLNRIACGQSIPAIAAELYVAPSTVKTHVQRLYEKLGVSDRAAAVAEAMRQRLLD” here?
A: soluble

Q: For “MSLTDRIRRLRQESFDTQPSLSIERALIETEFYKENEGKYPIPILRALNFLEICKRKTIYIGEDELIVGERGPRPKAVSTFPELTCHSVEDLHVLNTRELQRYTISQEDIDTYEREVIPYWKGRTQRERIFNHVPKEWKEAYEVGMFTEFMEQRAPGHTSLDGKVYQHGMLDLKERIAHELKNLDFMNDPEATDKQEELTAMSISCDAAIIFAERHAELAEKMAGQETDPKRKEELKKIAEICRWVPAHAPRTYWEAIQMYWFVHLGTITELNGWDAMNPGHFDQHLAPFYEKDLEEGILTRAEAKELMSCFFIKVNNQTAPPKVGITAKESGTYNDFTNLNIGGIKRDGSNGVSEVSYIMLETVDDLHLLQPGSALHISVCTPERFLREGCKVIRKGYGYPSVFNPDTYVMELMRQGKTPEDAREGGCSGCIEVGAFGKEAYILTGYLNVPKILEVTLHNGTDPVSGKKVGLVTGDPCTFRSYEALYDAFLKQIHYFVDMKVRVSNYIDRMFAKYAPATFLSLFIDDCIAKGKDYYNCGPRYNTSYIQCTGLGTITDSLSVLKKHVFEERKFNMEQIIHATDTNFEGQEAMRQFILNRTPFFGNDDEYADRIAIQIFNDLYDAIEGKPNTKGECFHLNMLSTTCHVYFGKMMNATPNGREGHHHHHH”, which “soluble on expression in E. coli” value is on record?
A: soluble

Q: With “MASNEKTRYKAIIADHTYTIIGQESKQHMDLVTKIVNEQLAEIKHLSPQTDTEQASVLLAINAISDQLKKQEYALKLEKQVADLKQKTIRLAELENRVRRMEIIEEEARDVLKKNGQEDVEIHNHVEAQQILNENRKQQIQNKGVSE” as the sequence, how does the “soluble on expression in E. coli” value read?
A: not soluble

Q: Which “soluble on expression in E. coli” value does the source give for “MSNPLFPTESAALTLDGPVGPLDVAVDLPEPDVAVQPVTAIVCHPLSTEGGSMHNKVVTMAARALRELGITVVRFNFRSVGTSAGSFDHGDGEQDDLRAVAEWVRAQRPTDTLWLAGFSFGAYVSLRAAAALEPQVLISIAPPAGRWDFSDVQPPAQWLVIQGDADEIVDPQAVYDWLETLEQQPTLVRMPDTSHFFHRKLIDLRGALQHGVRRWLPATP” here?
A: soluble
